Data reported in PMC2990405.

Biological target: Canonical-type transient receptor potential cation channel type 3 (TRPC3) (rabbit (endogenous in skeletal muscle))
Test: co-IP

Q: “GST-JP2 fragment F1-3 (a.a. 143-215) (from UniProt Q9ET78 143-215) (domain or fragment)” was tested. Which ratio of GST-band/TRPC3-band intensities normalised to F1-1 (set as 1) did it give?
A: The ratio of GST-band/TRPC3-band intensities normalised to F1-1 (set as 1) was 0.25.
